Our source for the Km values is patent US5276170A, “Azido-substituted aromatic amino acids” (The United States of America as represented by the …, priority 1992, dated 1994).

Substrate in the data set: [N-]=[N+]=Nc1cc(O)ccc1C[C@H](N)C(=O)O
Briefly: Tyrosine phenol-lyase catalyzed hydrolytic cleavage to ammonium pyruvate and 3-azidophenol. To be noted: other: as substrate. It is filed as biochemical.

B1: tyrosine phenol-lyase (Citrobacter freundii) (protein)
chain: MNYPAEPFRIKSVETVSMIPRDERLKKMQEAGYNTFLLNSKDIYIDLLTDSGTNAMSDKQWAGMMMGDEAYAGSENFYHLERTVQELFGFKHIVPTHQGRGAENLLSQLAIKPGQYVAGNMYFTTTRYHQEKNGAVFVDIVRDEAHDAGLNIAFKGDIDLKKLQKLIDEKGAENIAYICLAVTVNLAGGQPVSMANMRAVRELTEAHGIKVFYDATRCVENAYFIKEQEQGFENKSIAEIVHEMFSYADGCTMSGKKDCLVNIGGFLCMNDDEMFSSAKELVVVYEGMPSYGGLAGRDMEAMAIGLREAMQYEYIEHRVKQVRYLGDKLKAAGVPIVEPVGGHAVFLDARRFCEHLTQDEFPAQSLAASIYVETGVRSMERGIISAGRNNVTGEHHRPKLETVRLTIPRRVYTYAHMDVVADGIIKLYQHKEDIRGLKFIYEPKQLRFFTARFDYI
B1: the Km was found to be 1000 µM.

By Km is commonly meant the concentration of substrate that gives half-maximal velocity.
